{
  "source": "paper PMC7710018",
  "about": "“Restoration of motor learning in a mouse model of Rett syndrome following long-term treatment with a novel small-molecule activator of TrkB” (Disease Models & Mechanisms, 2020)",
  "key": {"3T3-TrkA cells": {"system": "3T3-TrkA cells", "experiment": "NIH-3T3 cell survival (ViaLight)", "assay_type": "cell-based, mouse", "conditions": "serum-free medium, 72-96 h, PTX-BD4-3 1000 nM", "description": "(§1) Fig. 2. PTX-BD4-3 promotes cell survival preferentially through TrkB. (A-D) Neurotrophin receptor-expressing NIH-3T3 cells were incubated in culture medium (CM) alone or in medium plus either the indicated neurotrophins (BDNF, NGF, NT-3) or PTX-BD4-3 or its parent compound LM22A-4 for 72-96 h, after which survival was measured using the ViaLight assay. […] Scale bar: 10 μm. (B) Survival dose-response curves for PTX-BD4-3 and LM22A-4 in 3T3-TrkB cells. ^§P≤0.001 compared to CM alone. (C) Representative images of 3T3-TrkA, 3T3-TrkC and 3T3-p75 cells grown in the presence of CM alone, CM+neurotrophin or CM+PTX-BD4-3. Scale bar: 10 μm. NGF, NT-3 and BDNF served as positive controls for 3T3-TrkA, 3T3-TrkC and 3T3-p75 cells, respectively. (D) PTX-BD4-3 (1000 nM) had no effect on survival of 3T3-TrkA, 3T3-TrkC or 3T3-p75 cells compared to medium alone. *P≤0.05, ***P≤0.001 compared to CM alone. For each determination in B and D, n=10-32 wells derived from four to five independent experiments. Statistical significance was determined by one-way ANOVA with Dunnett's post hoc multiple comparison test. (E,F) […] protein was extracted from human cementoblast-like cell (HCEM) cultures treated with either culture medium alone, BDNF, LM22A-4 or PTX-BD4-3, immunoprecipitated with anti-TrkB antibody and then probed sequentially on western blots with anti-Shc and anti-TrkB antibody. The ratio of Shc to TrkB in treated cultures was normalized and compared to control (CM alone) using Kruskal-Wallis ANOVA followed by Dunn's multiple comparisons test (*P≤0.05, ^§P≤0.001). n=13 independent experiments, and each protein sample was run on duplicate western blots and the normalized values averaged. RLUs, relative light units.\n(§2) Mouse NIH-3T3 cells expressing TrkA (NIH-3T3-TrkA) were provided by Dr William Mobley (University of California at San Diego, San Diego, CA, USA), and NIH-3T3 cells expressing TrkB (NIH-3T3-TrkB) or TrkC (NIH-3T3-TrkC) were provided by Dr David Kaplan (University of Toronto, Toronto, ON, Canada). Cells were propagated in Dulbecco's modified Eagle medium (DMEM) supplemented with 10% fetal bovine serum (FBS; Invitrogen) and 200-400 µg/ml Geneticin. Cells were seeded into 24-well plates (30,000 cells/well) and cultured in medium consisting of 50% PBS and 50% DMEM without supplements. Following exposure to BDNF (20 ng/ml, 0.7 nM) or 10-1000 nM LM22A-4 or PTX-BD4-3 for 72-96 h, cells were suspended in 50 µl lysis buffer, transferred to white, opaque 96-well culture plates and survival was measured using the ViaLight Assay (Lonza Group, Rockland, ME, USA)."}, "3T3-TrkC cells": {"system": "3T3-TrkC cells", "experiment": "NIH-3T3 cell survival (ViaLight)", "assay_type": "cell-based, mouse", "conditions": "serum-free medium, 72-96 h, PTX-BD4-3 1000 nM", "description": "as §1, §2"}, "TrkB": {"system": "TrkB", "experiment": "Shc adaptor protein recruitment to TrkB in HCEMs (IP/western blot)", "assay_type": "cell-based, human", "conditions": "1 h, compounds 1000 nM, BDNF 0.7 nM", "text": "Fig. 2. […] Scale bar: 10 μm. […] Scale bar: 10 μm."}, "[1]": {"system": "E16 mouse hippocampal neurons", "experiment": "Hippocampal neuron survival (ViaLight assay and Tuj1-positive cell counts)", "assay_type": "cell-based", "conditions": "compounds 1000 nM, BDNF 20 ng/ml; vs control antibody", "text": "To further confirm that PTX-BD4-3 promotes biologically relevant activity through TrkB, we examined the effect of PTX-BD4-3 on survival of cultured hippocampal neurons, using two different methods (Fig. 3A-C). […] It would be expected that although there is a correlation between survival status and mitochondrial metabolic status, one could have some degree of variability in metabolic function for a given level of cell survival. […] Because the plateau effect of PTX-BD4-3 on survival was observed between 500 nM and 1000 nM, we chose 1000 nM as a standard concentration for subsequent mechanistic studies.\nFig. 3. […] (A) Fluorescence photomicrographs (original magnification, ×40) of Tuj1-immunostained E16 mouse hippocampal neuronal cultures treated with culture medium (CM) alone, BDNF, LM22A-4 or PTX-BD4-3 for 48 h. Scale bar: 10 μm. (B) Neuron survival dose-response curves for LM22A-4 and PTX-BD4-3 were generated using the ViaLight assay; data were normalized to survival achieved with 20 ng/ml (∼0.7 nM) BDNF and compared with wells receiving culture medium medium (CM) alone. n=10-32 wells per group derived from four to five independent experiments. (C) Survival analysis of hippocampal neurons treated with either 20 ng/ml BDNF, 500 nM or 1000 nM LM22A-4 or 500 nM or 1000 nM PTX-BD4-3 for 48 h. Tuj1-positive cells counts were normalized to the survival achieved with BDNF and compared with wells treated with […]. n=32-40 wells per group derived from six independent experiments. Statistical significance in B and C was determined by one-way ANOVA with Dunnett's post hoc multiple comparison tests. *P≤0.05, ^§P≤0.001 compared to control (CM). (D) Survival of hippocampal neurons treated with CM, 20ng/ml BDNF (B), 1000 nM LM22A-4 or 1000 nM PTX-BD4-3 with or without anti-TrkB antibody (Bab) or non-immune serum (non). n=37-42 wells per group derived from five independent experiments. *P≤0.05, **P≤0.01, ***P≤0.001 (non vs Bab), Mann-Whitney test; *P≤0.05, ^ψP≤0.01, ^§P≤0.001 (compared to CM), one-way ANOVA with Dunnett's post hoc multiple comparison test.\nHippocampal neuron cultures were prepared from E16 CF1 mouse fetuses as described previously ([Yang et al., 2006]). Under the low-density conditions used here, neuronal survival is dependent, in part, on addition of exogenous neurotrophins ([Yang et al., 2008]; [Walter et al., 2011]). LM22A-4 and PTX-BD4-3 were dissolved in water at a stock concentration of 10 mM prior to dilution (1:10,000) in culture medium. Cell survival following a 48-h exposure to BDNF, LM22A-4 or PTX-BD4-3 was quantified by either counting β-tubulin III-positive cell bodies ([Massa et al., 2006]; [Walter et al., 2011]) or by the ViaLight Assay described above."}, "3T3-TrkB cells": {"system": "3T3-TrkB cells", "experiment": "NIH-3T3 cell survival (ViaLight)", "assay_type": "cell-based, mouse", "conditions": "serum-free medium, 72-96 h, ViaLight; compounds 10-1000 nM dose-response, BDNF 20 ng/ml", "description": "as §1, §2"}, "3T3-p75 cells": {"system": "3T3-p75 cells", "experiment": "NIH-3T3 cell survival (ViaLight)", "assay_type": "cell-based, mouse", "conditions": "serum-free medium, 72-96 h, PTX-BD4-3 1000 nM", "description": "as §1, §2"}, "[2]": {"system": "3T3 parent line, which does not express Trk receptors", "experiment": "NIH-3T3 cell survival", "assay_type": "cell-based, mouse", "conditions": "serum-free medium"}},
  "data": [
    {"molecule": "NGF: neurotrophin, cognate ligand and positive control for 3T3-TrkA cells", "values": [
      {"measurement": "survival of 3T3-TrkA cells", "setting": "3T3-TrkA cells", "result": "supported survival"}
    ]},
    {"molecule": "NT-3: neurotrophin, cognate ligand and positive control for 3T3-TrkC cells (protein, UniProt P20783 139-257, looked up) Neurotrophin-3: YAEHKSHRGEYSVCDSESLWVTDKSSAIDIRGHQVTVLGEIKTGNSPVKQYFYETRCKEARPVKNGCRGIDDKHWNSQCKTSQTYVRALTSENNKLVGWRWIRIDTSCVCALSRKIGRT", "values": [
      {"measurement": "survival of 3T3-TrkC cells", "setting": "3T3-TrkC cells", "result": "supported survival"}
    ]},
    {"molecule": "BDNF: Recombinant brain-derived neurotrophic factor, cognate ligand of TrkB; positive control (protein, UniProt P23560 19-247, looked up) Neurotrophic factor BDNF …: APMKEANIRGQGGLAYPGVRTHGTLESVNGPKAGSRGLTSLADTFEHVIEELLDEDQKVRPNEENNKDADLYTSRVMLSSQVPLEPPLLFLLEEYKNYLDAANMSMRVRRHSDPARRGELSVCDSISEWVTAADKKTAVDMSGGTVTVLEKVPVSKGQLKQYFYETKCNPMGYTKEGCRGIDKRHWNSQCRTTQSYVRALTMDSKKRIGWRFIRIDTSCVCTLTIKRGR", "values": [
      {"measurement": "Shc recruitment to TrkB (ratio of Shc to TrkB)", "setting": "TrkB", "result": "promoted Shc recruitment to TrkB"},
      {"measurement": "neurotrophic activity in the presence of function-blocking anti-TrkB^ECD antibody", "setting": "[1]", "result": "reduction"},
      {"measurement": "survival of 3T3-TrkB cells", "setting": "3T3-TrkB cells", "result": "supported survival"},
      {"measurement": "survival of 3T3-p75 cells", "setting": "3T3-p75 cells", "result": "respond"},
      {"measurement": "survival of the 3T3 parent line", "setting": "[2]", "result": "did not support survival"}
    ]}
  ]
}
